Results from publication PMC5615036, “Crystal structure of an ASCH protein from Zymomonas mobilis and its ribonuclease activity specific for single-stranded RNA”.

Biological target: T1, ZmASCH wild-type (Zymomonas mobilis ZM4, UniProt Q5NP14 1-148)
T1 sequence: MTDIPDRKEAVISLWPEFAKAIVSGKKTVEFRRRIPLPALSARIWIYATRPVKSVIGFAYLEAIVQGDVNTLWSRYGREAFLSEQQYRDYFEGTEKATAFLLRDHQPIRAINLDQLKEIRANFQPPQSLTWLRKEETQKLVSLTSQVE
Test: EMSA; 10 mM Mg2+; bound, not degraded; EMSA: 20 mM Tris-HCl pH 7.5, 10 mM Mg acetate, 300 mM KCl, 100 ng/uL BSA, 100 ng/uL heparin, 30 min at 310 K; nuclease assay: 20 mM Tris-HCl pH 8.0, 100 mM KCl, 100 ng/uL BSA, with or without 10 mM divalent metal, 310 K
Conditions: protein: recombinant; tags: N-terminal His6; label: 5'-32P; single strand

**Q.** Does ATCAGCTCGTCACAACATTACTTCATCAAC (ssDNA) [ssDNA(30mer)] bind?
**A.** Result: binds
